Results taken from US20250357519.

Assays:
[1] = molecular target: native equine heart cytochrome c (Sigma C2506), P00004
[2] = molecular target: partially acetylated equine heart cytochrome c (Sigma C4186), P00004
Chain of partially acetylated equine heart cytochrome c (Sigma C4186), P00004 (P00004 2-105): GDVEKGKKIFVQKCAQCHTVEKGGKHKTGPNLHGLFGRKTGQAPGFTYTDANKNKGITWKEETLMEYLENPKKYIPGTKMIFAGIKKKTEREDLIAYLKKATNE

Chain of native equine heart cytochrome c (Sigma C2506), P00004 (P00004 2-105): as above

B1: Strep-tag II-tagged DvH-FDH2 (recombinant formate dehydrogenase 2 from Desulfovibrio vulgaris Hildenborough, heterodimer of large and small subunit) (protein)
chain 1: MRMPRRTFIKLASASAGALAFAGLGQSLAPTVARAAELKIAKAKVTPSVCCFCAVGCGLLVYTDTQTGRSINIEGDPDHPTNEGTLCPKGASIWQTTERSKRVTKVLYRAPGAAAWEEKSWDWALPRIARKIKETRDATFELTNDKGQTVNRTRGIASVGSAAVDNEEGWLMQAMMRALGLVYIESHARIUHSSTVGALAESYGRGAMTNHWIDLKNSDVILIMGSNAAENHPISFKWVTRAQERGATLIHVDPRFTRTSAKADIHAHIRSGTDIAFFGGLIRYIMENDLFFRQYVVDYTNASYIVGADYGFADGLFTGFDAEKGTYNTKKWAFAADENGMTLKDPTLNDPRCVFQLMKAHYARYDRKTVSDVTGISEEQLATLWSTFASTGKPDRAGTILYAMGQCQHTVGVQNIRALSMIQLLLGNIGIAGGGVNALRGESNVQGTTDISLLCDNLSGYLPTPKASWATFDDYVKGTTPVDKDPKSANWWSNRGKYLASYMKSVYPTASHQDGYLWHPKVDDGKITDYSWLQIFERMSKGGFKGAFVWGQNPCAGGANAGKNRKAMETLDWMVVVNLFENESSLFWKGPGVDPAKVKTEVFFLPACMSVEKGGSIANSGRWLQWREPGPKPMGDSRSDGDIVLDLYDEIRKLYREEKGAFPEPVLALDTDYRTDGKYDHHKVAKTLNGKFLTDVTIGDKTYKAGQQVPGFAMLQADGSTTSGCWIFTGCYTDAGNMMARRDRTQTPEQAAIGLFPNWSYAWPANRRILYNRAAVDMTGKPFDPKRAVIAWNGEKWVGDVPDGGWKPGEKLPFIMIREGRGQLFGPGRVDGPFPEHYEPFESPLESHPFSKQRVNPTALAFSHEPKAVRDKRYPFICTTYRVTEQWQSGTMTRNTGWLKEMQPEGFCEISRELAKELGIANGDAVVLESLRGKVQVVAIVTPRLKPFKVMGEVMHEVGIPWQFGWGQHVGKGDSANLLSPSVGDPNTGIPETKVFMVNLRKA
chain 2: MRPLGSLPQGMRRVSRRHIREAYMNGKTFFIDQTRCTACRGCQAACKQWKKFGSIETRNTGSYQNPPDLGPSTFKLVRFNEVEVDGKLKWLFFPEQCRHCLEPPCKMVADALIPGAIVQDAETGAVLYTEKTKGLDYMEVRSACPYDIPRQDPATGLLTKCNMCIDRVQNGMLPACVKTCPTGTMHFGDRADMLELAQKRLGEVKKRSPAALLADSDLVRVLYLCELAPANYHSHMVAEADTSRIGPFSRRALLRLRPFA
reduction of native equine cytochrome c in air at doubled formate concentration (electronic spectra) [1]: Doubling the formate concentration resulted in near-stoichiometric reduction in air
reduction of native equine cytochrome c in the presence of formate (absorbance at 550 nm), anaerobic [1]: stoichiometric reduction occurred under anaerobic conditions
reduction of native equine cytochrome c in the presence of formate (absorbance at 550 nm), in air [1]: ~80% underwent reduction in air
reduction of acetylated equine cytochrome c during DvH-FDH2 catalysis (absorbance at 550 nm) [2]: DvH-FDH2 does not reduce acetylated cytochrome c
